{"source": "the DeepSol protein solubility set", "data": [{"experiment": "soluble on expression in E. coli; label from the status in PepcDB or PDB records", "values": [{"sequence": "MGSDKIHHHHHHMSIDTITLQCFLAVAETQSFTKAAQRVGRTQSAISQQIAKLENLIEKPLINRGRELSLTTDGEIFLGYAKRIYELHRESLDRFKAPELQGEIRFGLPEDFASIILSDVLVEFSRLHPRVLLNVECDLTLNLIERFNEGKFDLILIKTTQQQVGSESIYVCTEPVEWIGKKELLPLLDKPGPIPLVLSPTPCVYRGNVIDTLDKNHIDWRLVYSSASYAGKMAAVRAGLGITAIQRSMIPNYLERLDYDFLPILNDVHVSLLKKSGSNKAIESLEFFILQKLKY", "soluble on expression in E. coli": "not soluble"}, {"sequence": "MAHHHHHHMLLLKRPFLPARVAPLCAQRKVSRLITYYTKSHEYIKINDEDLTELKKKNNVKCKIGISNYGTEKLGEIVYIDISQNINEYVKKGECIATVESVKSVGDVYTPISGQIVDINNEIVDNVNLMNGNSESDGWILELLTNDVNEKEIMSFSEYKKMCEEEEQREATKIQQSERDCLEEKNKNKIFDLNDIKNIEEKTKK", "soluble on expression in E. coli": "soluble"}, {"sequence": "MHHHHHHSSGVDLGTENLYFQSMEKTELIQKAKLAEQAERYDDMATCMKAVTEQGAELSNEERNLLSVAYKNVVGGRRSAWRVISSIEQKTDTSDKKLQLIKDYREKVESELRSICTTVLELLDKYLIANATNPESKVFYLKMKGDYFRYLAEVACGDDRKQTIDNSQGAYQEAFDISKKEMQPTHPIRLGLALNFSVFYYEILNNPELACTLAKTAFDEAIAELDTLNEDSYKDSTLIMQLLRDNLTLWTSDSAG", "soluble on expression in E. coli": "soluble"}, {"sequence": "HGTSDATLLKGVGHLYGTALPVGGLGTRSVLTAHSGIQKSTFFDNLEKVKKGDAIYVRNIGETLKYQVRDIEIIRPAEIDRIQPIPDRDLITLVTCTPYGINTHRLLVTAERVPMEPGEADRAFAGDGIVWQWWMK", "soluble on expression in E. coli": "not soluble"}, {"sequence": "QDVGQKSIFSITPEFDEVRSISNVGSNGDISSHGNTIYFTRHTLNSPQDIFSIDNHGDDLTQLTHINKDKLGDVKFADYQQFNFKGWNDETVHGYWLKPANFEAGKKYPIAFLVHGGPQGSFGNMFHYRWNAQLWAAQGYGVVMVDFHGSTGYGQEFTHSISRDWGGKPLEDLQKGLDFIVKEQPWLDGDNACALGASYGGYMMNWIAGNWPTRFKCLINHAGLYDMPSFYQSTEELWFPEYDMGGPSWGKENGSAKGKVSPDYTKFNPSAYVNNWQTPMLVIQGELDYRVPYAQSLGAFTTLQRKGIDSRLVMFPDEDHHIRKPDNLVVWYDEVFKWLEKYTK", "soluble on expression in E. coli": "not soluble"}, {"sequence": "MKAPELLLPAGGLERMRAAYDYGADAVYAGSPRYSLRARNNEFAKLDVLEQGIKEAHERNKKFFLTVNTLPHNSKLKTFVADMEPLIAMKPDALIMADPGLIMTVREKWPEMPIHLSVQANTTNYWGVKFWQNIGVERIILSRELSMEEIAEIRQECPDIELEVFIHGALCIAYSGRCLLSGYFNHRDPNQGTCTNSCRWDYKVHNATESDAGDAQLLQGFNFEKAQEEANQNFEGINGQKRHPYADKVFLIEESNRPGEMMPIMEDEHGTYIMNSKDLRGIEVVEKLAKIGVDSLKVEGRTKSLYYVARVAQSYRKAIDDAVAGRPFDYSLLSELEGLANRGYTSGFLERHQTQDYQNYLTGHSTAKQSQYVGHVTEIDENGWATVEVKNRFAVSDSLEIIHPSGNQTIKLEQMTRKGQPVDVAPGNGIQVKIPNMQGKEKALIARVLNP", "soluble on expression in E. coli": "not soluble"}, {"sequence": "MYPIKYVENNLVFNQEGECFAYYELVPYNYSFLSPEQKYQVHDNFRQLIAQNREGKIHALQIATESSIRATQERSKKEITGRLKEVAKQRIDLQTDALVSMIGDSQIDYRFFIGFKLIATDEEVNLKSLKKSFLSGLQEFVYGVNHHLMGDFVSLSNEEIRRYTKLEKLMESKLARRFKVRRVTPSDLTYLIEHIYGEKGTPFEEYEFQLPKKKLKSETLVKRYDLLHPSRCLIEENPRYLRMEHENHESYVAYLTINTIVGEMEFPSSELFYYQQQQFTFPIDTSMNVEIVTNKKALATVRNKKKELKDLDNHAYQSDNETNSNVLDALDSVNELETTLDQSKESMYKLSYVVRVSAESVDELKRRCDEVFDFYDDTNVKLVRPFGDMMGLHEEFLPSSKRYMNDYIQYVTSDFLAGLGFGATQKLGELEGIYFGYNVDTGRNVYLKPALASQGVKGSVTNALAAAFLGSLGGGKSFSNNLLVYYAVLFGGQAVIVDPKGERGGWKENLPEIADEINILNLTSKPENQGLLDPYVIMKKKKDSESLAIDILTFLTGISSRDGEKFPVLRKAIRTVTQSDQRGLLQVINELRKENSPVAENIADHIESFTDYDFAHLLFSDGSITQSISLDKQLNIIQVADLVLPDAETTFEEYTTMELLSVSMLIVISTFALDFIHSNREIFKIVDLDEAWSFLQVAQGKTLSNKLVRAGRAMNAGVYFVTQNSDDLLDERLKNNIGLKFAFRSTDIHEIKKTLEFFGLDQEDESNQKRLRDLENGQCLMQDLYGRVGVVQVHPVFEELFHAFDTRPPVQERME", "soluble on expression in E. coli": "not soluble"}, {"sequence": "MGSDKIHHHHHHVNVAQPEPGSGPTVRRMLLGSQLRRLREAKGISRADAAYKIRGSESKISRIELGRVGFKTRDVEDLLTFYGVEDEAVRDSFLKLAREANEPGWWQQYGDSLPSWFQSYVGMEEAATQLRVYETQFVPGLLQTEDYARAVVTRGGRKKLDDAARHRIATRMRRQERIRKNHNVKLWVIIDEPAVRRPVGTPEVMRAQLEHLYDLSMAPNITLQIVPFHQGVFAAETGSFTILRYPEYDLPDVVYVEQLTSCLFQEKRADVEQYTMTLEWLAVVAERPDQTRKMLQKMIKELEE", "soluble on expression in E. coli": "not soluble"}, {"sequence": "EQKVYEQKTRQQVMLSAYQQKEKDIESILDMQKQNSKQRHDINNVLILISELIQDEKYSKALEVLDKYRTGYNNINVTEIVSNNIVLNYLLNRKINQCREAGIDMACYVLWNIAGVDDMDLYILLENLCDNAIEAAGQCEKPSIKLQIAEDNASMYIDIGNTTSGNVLNNNPHMNTTKKDKNMHGFGIMNIRDIIDKYNGTINYEQQGDNYLMCRCTLEKVCQ", "soluble on expression in E. coli": "not soluble"}, {"sequence": "IETNRRERRIKRNKYLLSLYNNTNIKTSNFIYPLFIHEEDVEKKHTQLEGIYTYNVDGIIKEIEECIKLNIHHFMFFPVIREENKTVYCEESYNENSYFCKTISRIKEKFSDDIIVYTDVALDPYNIYGHDGIYDDNKKEILNDITVHTLVKQSLCLAKSGADVVCPSDSMDKRIELIRKNLDFHNFRDILILSYTCKYSSSMYKPFRSILNSNILKNFVKNKQSYQHDFNSYMDLNNVDKHIIEGADIIMVKPSMFYLDIIHKIKNRIKDDVQIPIAVYNVSGEYMMIKNYVKYLNEDINYENEIITELFKSYLRAGANIIITYFAKQYGLYMKKLYDKNIIIDDNSNNNFNIELTL", "soluble on expression in E. coli": "soluble"}, {"sequence": "MGSDKIHHHHHHMTNAVYTLIVRALSGIVSERAAETLLRAALREQGLTAEGVTAGEMQRVLSGPLLTRLSGVLPPERARAELGNLAAQLQKHYPKAPTLFSSPAATWDETTSTHWEDIDFSADDFEFDDPEYTATPPERQYALGTAAGQEALIQDLGRIPGVQGVMVCRASGEVLRERALSGSRNLSSVIAATALLFQKRALNLMSADMGGQTVCMRPVGAYCVAVVAGPQVNIGRLLAELQQVREAA", "soluble on expression in E. coli": "not soluble"}, {"sequence": "MDIQLVADGLQFPEGPIAMADGSVILTEIQGQRLTRVWPDGRKETVAETGGGPNGAAIGPDGAIYVTNNGGSFQFFEANGLNIPGPTPPTHTGGAIQRVDLKTGAITTLYTECDGKPLVGPNDLVFDKQGGFWFTDHGCSTPDGRKYGALYYALPDGSKITRWRDHFVSPNGVGLSPDEKTVYMADTMLGRLWSFDVASPGVLADAVPLLPGNVVCNLPGYQLLDSLAVEADGKVCVATIINGGITAFAPDGSTEHYAFPDVIVTNICFGGADMRDAWITASGTGKLYKARWPRPGLKLNFNGLEHHHHHH", "soluble on expression in E. coli": "soluble"}, {"sequence": "SLFITDKRVKESATALNPSMFQGLYLQDQMLKDPTYLPIYGSSELSRLDEFHPSNYFQVNNEGFTPYLVGKGGSQSLIHSLNFAAHMDQLKGKKIVFIVSPQWFIKRGSDEQHFAPNYSALQGLDLAFNDQIDPEIKKKMMKRMLRFKAVQNDAILSELYKAMVNGQTWKVNALKPAAKVYYSMLEKKDLYYSTTESSGPKRYISQSVKDKSWSELNKLADQSGKRHSGSNDFHIDNPVYKKLKPKVPKLKGKNKGRSYAVSPEYGDFEMMLDILKDAGAEPMFVTIPVNGKWYDYTGFPKKGRTDYYKKVNKQIRAKGFQVADFSGHEYDPYFMKDTIHIGWKGWVYVDKAIDEFYKTGKVTSS", "soluble on expression in E. coli": "soluble"}, {"sequence": "MKTIIRYFSFVMGLMLTLPSFAKEKISIMLDWYVNPDHAAIIVAQQKGFFEKNNLEVEIIEPADPALPPKLAAAEKVDLAVSYQPQLYQQVAEGLPLVRVGSLISNPLNSVVVLKKSNLKSLADLKGKKVGYSVSGFEDGLLDTMLHSIGLSNKDVELVNVNWSLSPSLLTGQVDAVIGAFRNFELNQLALEKQEGIAFFPEQYGVPAYDELILVANKNSVTDKKTSAFLTALEQATSYLQAHPNEAWQAFVSYKPNELNTPLNQLAWKDTLPFLANKPRQLDAKRYQQMAEFMQQKGLIPKALALKEYAVEIELEHHHHHH", "soluble on expression in E. coli": "soluble"}, {"sequence": "MTNSSSSKKQAQDQPETSEPTLKSLKTKMTKSDEKQKKLKDIEISVPIVYGNVAFWLGKKASEYQSHKWAVYVRGATNEDISVVVKKVVFQLHSSFNSPTRVIEEPPFEVSESGWGEFEIAMTLHFHSDVCDKPLSLYHHLKLYPEDESGPLTMKKPVVVESYDEIVFPDPSESFLARVQNHPALTFPRLPSGYNLPAPMQVEDTGKKKRGDTKDHSLGQWFMSFSEADELLQLAAARQQVQAHIAKLRRQISLLEGQNQTVKTGSDL", "soluble on expression in E. coli": "not soluble"}, {"sequence": "MNNSEGLKSFQQSLADLPQWVSERLLQQINQLTNYEPVIGIMGKTGVGKSSLCNALFAGDISPVSDVAACTREPLRFRLQVGDRYITLMDLPGVGESGARDTEYAALYREQLPRLDLVLWLIKADDRALTVDEHFYHQVIGEVYRHKVLFVISQSDKAEPTSGGGQLSTAQKQNISRKICLLHELFQPVHPVCAVSVRLQWGLKVMAERMIKCLPREATSPVVSQLHPSFRTTVVREQARSDFGETVGAVLDSISAFPLIPAPVRAVIQAVRTTVVSVARAVWDFFF", "soluble on expression in E. coli": "soluble"}, {"sequence": "MKREQVMGEGNYSLASHHIFGVDNANKMLFSPLDNAKNGMKIYLTDKNKVYTYEIREVKRVTPDRVDEVDDRDGVNEITLVTCEDLAATERIIVKGDLKETKDYSQTSNEILTAFNQPYKQFY", "soluble on expression in E. coli": "not soluble"}, {"sequence": "AYGKKSQTEVISFEEVVHPAEKIREALQVGKNEAIYELIRRRMLDGEPMTVEKIYLPQAYVQGHTKQDFEGSLFCLIEKNVEIAYSHQEIEAILVEAEISELLNVPVGQPLLQVHSITYALDATPILYDVSLYRADRYTFKNTLTRYSPSENNQVELGGSWNE", "soluble on expression in E. coli": "soluble"}, {"sequence": "MGSDKIHHHHHHMELQDKYIRFDWAVKRLLRHKANFGVLEGFLTVLIGDEIHIVEILESEGNQQTENDKFNRVDIKALNSKNEIVIIEIQNTRELYYLERILYGVAKAITEHISLGETYYKVKKIYSISILYFDIGHGTDYLYHGQNIFKGVHTGDFLQVSTREKDAIVPRMPSEIYPEYFLIRVNEFNKVAVTPLEEWIEYLKTGIIRPDTTAPGLGEAREKLKYYSMTPQERHAYDEHLSALMIQNDVLDSAKLEGKIEGKIEGKIEGRLEGRAEGREEGREEGIKEGVLRNARRMKEKGFSTEDIMEITGLTFEEVSQL", "soluble on expression in E. coli": "not soluble"}, {"sequence": "DSVIVVDNVPQVGPDRLEKLKNVIHKIFSKFGKITNDFYPEEDGKTKGYIFLEYASPAHAVDAVKNADGYKLDKQHTFRVN", "soluble on expression in E. coli": "soluble"}]}]}
